According to patent US20100183625A1, “Treatment of Mucositis with Kallikrein Inhibitors” (Dyax Corp., priority 2009, published 2010):

Biological target: T1, pKal (Homo sapiens, UniProt P03952)
T1 construct: two disulfide linked polypeptides; a heavy chain of approximately 52 kDa and a catalytic domain of approximately 34 kDa; host or cells: human plasma
Experiment: Fab fragments (small scale) tested for inhibition against human pKal in an in vitro protease cleavage assay
Type: biochemical
Conditions: Table 9
Procedure: By DNA sequencing, we recovered 61 of the possible 80 antibodies (Table 9). These antibodies were produced as Fab fragments in small scale (˜20 μg) and tested for inhibition against human pKal in an in vitro protease cleavage assay using Pro-Phe-Arg-aminomethylcoumarin as the synthetic peptide substrate. […] Five antibodies were then expressed in 293T cells and purified by protein A sepharose chromatography. The antibodies were analyzed by SDS-PAGE to determine which of the inhibitory mutants are not cleaved by the host cell protease(s) (data not shown).

T1 sequence (P03952 391-638 limits assumed): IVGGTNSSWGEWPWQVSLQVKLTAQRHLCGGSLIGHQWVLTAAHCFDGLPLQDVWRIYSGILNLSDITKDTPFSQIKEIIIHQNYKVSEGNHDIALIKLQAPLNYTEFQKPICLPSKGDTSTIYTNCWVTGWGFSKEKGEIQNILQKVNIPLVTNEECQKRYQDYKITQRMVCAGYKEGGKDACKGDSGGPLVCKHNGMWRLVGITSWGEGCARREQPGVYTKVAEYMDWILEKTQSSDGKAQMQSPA
T1 sequence (P03952 20-390 partner limits assumed): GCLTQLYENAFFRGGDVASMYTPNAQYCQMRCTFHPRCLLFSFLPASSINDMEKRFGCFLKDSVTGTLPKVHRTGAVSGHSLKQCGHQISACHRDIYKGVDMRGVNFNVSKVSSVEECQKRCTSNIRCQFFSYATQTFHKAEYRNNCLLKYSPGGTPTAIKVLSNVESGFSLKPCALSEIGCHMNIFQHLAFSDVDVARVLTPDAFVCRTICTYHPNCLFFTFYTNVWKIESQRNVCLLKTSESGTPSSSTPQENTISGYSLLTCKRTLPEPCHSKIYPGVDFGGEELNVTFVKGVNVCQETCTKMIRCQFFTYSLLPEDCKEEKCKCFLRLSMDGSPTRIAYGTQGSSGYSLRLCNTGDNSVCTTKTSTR

Row | Inhibit as a Fab? | Molecule
1 | Yes | X69-A09: single point mutation of M142-H08 (P1′); HV-CDR3 … (antibody, V domains shown) VL: QDIQMTQSPSSLSAFVGDRVTITCRASQPIDNYLNWYHQKPGKAPKLLIYAASRLQSGVPSRLSGSGFGTDFTLTISSLQPEDFGNYYCQQSYTVPYTFGGGTKVEIR VH: EVQLLESGGGLVQPGGSLRLSCAASGFTFSAYSMIWVRQAPGKGLEWVSYIRPSGGRTTYADSVKGRFTISRDNSKNTLYLQMNSLRAEDTAVYYCARGGLLLWFRSLKSNYFDYWGQGTLVTVSSASTKGPSVFPLAPSSKS
2 | Yes | X69-F09: single point mutation of M142-H08 (P1′); HV-CDR3 GGLLLWFRSLKSNYFDY (antibody, V domains shown) VL: QDIQMTQSPSSLSAFVGDRVTITCRASQPIDNYLNWYHQKPGKAPKLLIYAASRLQSGVPSRLSGSGFGTDFTLTISSLQPEDFGNYYCQQSYTVPYTFGGGTKVEIR VH: EVQLLESGGGLVQPGGSLRLSCAASGFTFSAYSMIWVRQAPSKGLEWVSYIRPSGGRTTYADSVKGRFTISRDNSKNTLYLQMNSLRAEDTAVYYCARGGLLLWFRSLKSNYFDYWGQGTLVTVSSASTKGPSVFPLAPSSKS
3 | No | X69-A12: single point mutation of M142-H08 (P1′); HV-CDR3 GGLLLWFRKLKSNYFDY (antibody, V domains shown) VL: QDIQMTQSPSSLSAFVGDRVTITCRASQPIDNYLNWYHQKPGKAPKLLIYAASRLQSGVPSRLSGSGFGTDFTLTISSLQPEDFGNYYCQQSYTVPYTFGGGTKVEIR VH: EVQLLESGGGLVQPGGSLRLSCAASGFTFSAYSMIWVRQAPGKGLEWVSYIRPSGGRTTYADSVKGRFTISRDNSKNTLYLQMNSLRAEDTAVYYCARGGLLLWFRKLKSNYFDYWGQGTLVTVSSASTKGPSVFPLAPSSKS
4 | No | X69-D08: single point mutation of M142-H08 (P1′); HV-CDR3 GGLLLWFRALKSNYFDY (antibody, V domains shown) VL: QDIQMTQSPSSLSAFVGDRVTITCRASQPIDNYLNWYHQKPGKAPKLLIYAASRLQSGVPSRLSGSGFGTDFTLTISSLQPEDFGNYYCQQSYTVPYTFGGGTKVEIR VH: EVQLLESGGGLVQPGGSLRLSCAASGFTFSAYSMIWVRQAPGKGLEWVSYIRPSGGRTTYADSVKGRFTISRDNSKNTLYLQMNSLRAEDTAVYYCARGGLLLWFRALKSNYFDYWGQGTLVTVSSASTKGPSVFPLAPSSKS
5 | Yes | X69-B08: single point mutation of M142-H08 (P1′); HV-CDR3 GGLLLWFRNLKSNYFDY (antibody, V domains shown) VL: QDIQMTQSPSSLSAFVGDRVTITCRASQPIDNYLNWYHQKPGKAPKLLIYAASRLQSGVPSRLSGSGFGTDFTLTISSLQPEDFGNYYCQQSYTVPYTFGGGTKVEIR VH: EVQLLESGGGLVQPGGSLRLSCAASGFTFSAYSMIWVRQAPGKGLEWVSYIRPSGGRTTYADSVKGRFTISRDNSKNTLYLQMNSLRAEDTAVYYCARGGLLLWFRNLKSNYFDYWGQGTLVTVSSASTKGPSVFPLAPSSKS
6 | No | X69-A10: single point mutation of M142-H08 (P1′); HV-CDR3 GGLLLWFRPLKSNYFDY (antibody, V domains shown) VL: QDIQMTQSPSSLSAFVGDRVTITCRASQPIDNYLNWYHQKPGKAPKLLIYAASRLQSGVPSRLSGSGFGTDFTLTISSLQPEDFGNYYCQQSYTVPYTFGGGTKVEIR VH: EVQLLESGGGLVQPGGSLRLSCAASGFTFSAYSMIWVRQAPGKGLEWVSYIRPSGGRTTYADSVKGRFTISRDNSKNTLYLQMNSLRAEDTAVYYCARGGLLLWFRPLKSNYFDYWGQGTLVTVSSASTKGPSVFPLAPSSKS

The remaining lines, values behind:

Row | Molecule | Inhibit as a Fab?
7 | X66-G08: single point mutation of M142-H08 (P1); HV-CDR3 GGLLLWFYELKSNYFDY (antibody, V domains shown) VL: QDIQMTQSPSSLSAFVGDRVTITCRASQPIDNYLNWYHQKPGKAPKLLIYAASRLQSGVPSRLSGSGFGTDFTLTISSLQPEDFGNYYCQQSYTVPYTFGGGTKVEIR VH: EVQLLESGGGLVQPGGSLRLSCAASGFTFSAYSMIWVRQAPGKGLEWVSYIRPSGGRTTYADSVKGRFTISRDNSKNTLYLQMNSLRAEDTAVYYCARGGLLLWFYELKSNYFDYWGQGTLVTVSSASTKGPSVFPLAPSSKS | No
8 | X69-D02: single point mutation of M142-H08 (P1′); HV-CDR3 GGLLLWFRHLKSNYFDY (antibody, V domains shown) VL: QDIQMTQSPSSLSAFVGDRVTITCRASQPIDNYLNWYHQKPGKAPKLLIYAASRLQSGVPSRLSGSGFGTDFTLTISSLQPEDFGNYYCQQSYTVPYTFGGGTKVEIR VH: EVQLLESGGGLVQPGGSLRLSCAASGFTFSAYSMIWVRQAPGKGLEWVSYIRPSGGRTTYADSVKGRFTISRDNSKNTLYLQMNSLRAEDTAVYYCARGGLLLWFRHLKSNYFDYWGQGTLVTVSSASTKGPSVFPLAPSSKS | No
9 | X69-E05: single point mutation of M142-H08 (P1′); HV-CDR3 GGLLLWFRRLKSNYFDY (antibody, V domains shown) VL: QDIQMTQSPSSLSAFVGDRVTITCRASQPIDNYLNWYHQKPGKAPKLLIYAASRLQSGVPSRLSGSGFGTDFTLTISSLQPEDFGNYYCQQSYTVPYTFGGGTKVEIR VH: EVQLLESGGGLVQPGGSLRLSCAASGFTFSAYSMIWVRQAPGKGLEWVSYIRPSGGRTTYADSVKGRFTISRDNSKNTLYLQMNSLRAEDTAVYYCARGGLLLWFRRLKSNYFDYWGQGTLVTVSSASTKGPSVFPLAPSSKS | No
10 | X69-F05: single point mutation of M142-H08 (P1′); HV-CDR3 GGLLLWFRLLKSNYFDY (antibody, V domains shown) VL: QDIQMTQSPSSLSAFVGDRVTITCRASQPIDNYLNWYHQKPGKAPKLLIYAASRLQSGVPSRLSGSGFGTDFTLTISSLQPEDFGNYYCQQSYTVPYTFGGGTKVEIR VH: EVQLLESGGGLVQPGGSLRLSCAASGFTFSAYSMIWVRQAPGKGLEWVSYIRPSGGRTTYADSVKGRFTISRDNSKNTLYLQMNSLRAEDTAVYYCARGGLLLWFRLLKSNYFDYWGQGTLVTVSSASTKGPSVFPLAPSSKS | Yes
11 | X69-D09: single point mutation of M142-H08 (P1′); HV-CDR3 GGLLLWFRGLKSNYFDY (antibody, V domains shown) VL: QDIQMTQSPSSLSAFVGDRVTITCRASQPIDNYLNWYHQKPGKAPKLLIYAASRLQSGVPSRLSGSGFGTDFTLTISSLQPEDFGNYYCQQSYTVPYTFGGGTKVEIR VH: EVQLLESGGGLVQPGGSLRLSCAASGFTFSAYSMIWVRQAPGKGLEWVSYIRPSGGRTTYADSVKGRFTISRDNSKNTLYLQMNSLRAEDTAVYYCARGGLLLWFRGLKSNYFDYWGQGTLVTVSSASTKGPSVFPLAPSSKS | Yes
12 | X69-B02: single point mutation of M142-H08 (P1′); HV-CDR3 GGLLLWFRCLKSNYFDY (antibody, V domains shown) VL: QDIQMTQSPSSLSAFVGDRVTITCRASQPIDNYLNWYHQKPGKAPKLLIYAASRLQSGVPSRLSGSGFGTDFTLTISSLQPEDFGNYYCQQSYTVPYTFGGGTKVEIR VH: EVQLLESGGGLVQPGGSLRLSCAASGFTFSAYSMIWVRQAPGKGLEWVSYIRPSGGRTTYADSVKGRFTISRDNSKNTLYLQMNSLRAEDTAVYYCARGGLLLWFRCLKSNYFDYWGQGTLVTVSSASTKGPSVFPLAPSSKS | No
